Assay results as given in US20170088585A1 (BAR ILAN UNIVERSITY, published 2017).
Blank lines part the entries; values can stand above or below the binder they belong to. Square brackets hold non-standard residues; d marks the D form.

Biological target: Aβ40 (UniProt P05067 672-711)
Experiment: cell-based or functional assay

Chain of Aβ40 (P05067 672-711 limits assumed): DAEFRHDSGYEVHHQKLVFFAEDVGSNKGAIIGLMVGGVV

B1: [aLwHsK]: Cyclo-D-alanine-L-leucine-D-tryptophan-L-histidine-D-serine-L-lysine (peptide)
peptide: cyclo([dA]L[dW]H[dS]K)
SMILES: CC(C)C[C@@H]1NC(=O)[C@@H](C)NC(=O)[C@H](CCCCN)NC(=O)[C@@H](CO)NC(=O)[C@H](Cc2c[nH]cn2)NC(=O)[C@@H](Cc2c[nH]c3ccccc23)NC1=O
- Inhibition at 1:1 (ThT assay, Aβ:cyclic peptide): 53%
- Inhibition at 1:1/3 (ThT assay, Aβ:cyclic peptide): 12%

B3: [lLwHsA]: Cyclo-D-leucine-L-leucine-D-tryptophan-L-histidine-D-serine-L-alanine (peptide)
peptide: cyclo([dL]L[dW]H[dS]A)
SMILES: CC(C)C[C@@H]1NC(=O)[C@@H](CC(C)C)NC(=O)[C@H](C)NC(=O)[C@@H](CO)NC(=O)[C@H](Cc2c[nH]cn2)NC(=O)[C@@H](Cc2c[nH]c3ccccc23)NC1=O
- Inhibition at 1:1 (ThT assay, Aβ:cyclic peptide): 67%
- Inhibition at 1:1/3 (ThT assay, Aβ:cyclic peptide): 48%

B4: [lLwAsK]: Cyclo-D-leucine-L-leucine-D-tryptophan-L-alanine-D-serine-L-lysine (peptide)
peptide: cyclo([dL]L[dW]A[dS]K)
SMILES: CC(C)C[C@@H]1NC(=O)[C@@H](CC(C)C)NC(=O)[C@H](CCCCN)NC(=O)[C@@H](CO)NC(=O)[C@H](C)NC(=O)[C@@H](Cc2c[nH]c3ccccc23)NC1=O
- Inhibition at 1:1 (ThT assay, Aβ:cyclic peptide): 73%
- Inhibition at 1:1/3 (ThT assay, Aβ:cyclic peptide): 49%

Now from value to binder:

- Inhibition at 1:1 (ThT assay, Aβ:cyclic peptide): 44%
- Inhibition at 1:1/3 (ThT assay, Aβ:cyclic peptide): 3%
B2: [lAwHsK]: Cyclo-D-leucine-L-alanine-D-tryptophan-L-histidine-D-serine-L-lysine (peptide)
peptide: cyclo([dL]A[dW]H[dS]K)
SMILES: CC(C)C[C@H]1NC(=O)[C@H](CCCCN)NC(=O)[C@@H](CO)NC(=O)[C@H](Cc2c[nH]cn2)NC(=O)[C@@H](Cc2c[nH]c3ccccc23)NC(=O)[C@H](C)NC1=O

- Inhibition at 1:1 (ThT assay, Aβ:cyclic peptide): 56%
- Inhibition at 1:1/3 (ThT assay, Aβ:cyclic peptide): 47%
B5: [lLwHaK]: Cyclo-D-leucine-L-leucine-D-tryptophan-L-histidine-D-alanine-L-lysine (peptide)
peptide: cyclo([dL]L[dW]H[dA]K)
SMILES: CC(C)C[C@@H]1NC(=O)[C@@H](CC(C)C)NC(=O)[C@H](CCCCN)NC(=O)[C@@H](C)NC(=O)[C@H](Cc2c[nH]cn2)NC(=O)[C@@H](Cc2c[nH]c3ccccc23)NC1=O

- Inhibition at 1:1 (ThT assay, Aβ:cyclic peptide): 60%
- Inhibition at 1:1/3 (ThT assay, Aβ:cyclic peptide): 32%
B6: [lLwHsK]: Cyclo-D-leucine-L-leucine-D-tryptophan-L-histidine-D-serine-L-lysine (peptide)
peptide: cyclo([dL]L[dW]H[dS]K)
SMILES: CC(C)C[C@@H]1NC(=O)[C@@H](CC(C)C)NC(=O)[C@H](CCCCN)NC(=O)[C@@H](CO)NC(=O)[C@H](Cc2c[nH]cn2)NC(=O)[C@@H](Cc2c[nH]c3ccccc23)NC1=O

- Inhibition at 1:1 (ThT assay, Aβ:cyclic peptide): 4%
- Inhibition at 1:1/3 (ThT assay, Aβ:cyclic peptide): 5%
B7: [lLaHsK]: Cyclo-D-leucine-L-leucine-D-alanine-L-histidine-D-serine-L-lysine (peptide)
peptide: cyclo([dL]L[dA]H[dS]K)
SMILES: CC(C)C[C@@H]1NC(=O)[C@@H](CC(C)C)NC(=O)[C@H](CCCCN)NC(=O)[C@@H](CO)NC(=O)[C@H](Cc2c[nH]cn2)NC(=O)[C@@H](C)NC1=O
